Measured values taken from PMC4346865.
Values joined by “and” are separate entries in the source; they are usually repeats but may differ in a detail not shown here. Equal values may be shown once.

B1: R12.06 (5'-amino-C6) (ssDNA)
DNA: TGTACCGTCTGAGCGATTCGTACGATTACTATAATTTCCTATCGTCCGACCGCCGTCAGCCAGTCAGTGTTAAGGAGTGC
modifications: 5' amino-C6
B2: R12.06 (FAM) (ssDNA)
DNA: B1 DNA

Columns and labels:
[1] = target: T1, alpha toxin (alpha-hemolysin) (Staphylococcus aureus, UniProt P09616 27-319); assay: SPR; assay 2; […] (pH not stated); SPR temperature not stated; […]; conditions: protein: commercial; stem-loop (Mfold)
T1 sequence (P09616 27-319): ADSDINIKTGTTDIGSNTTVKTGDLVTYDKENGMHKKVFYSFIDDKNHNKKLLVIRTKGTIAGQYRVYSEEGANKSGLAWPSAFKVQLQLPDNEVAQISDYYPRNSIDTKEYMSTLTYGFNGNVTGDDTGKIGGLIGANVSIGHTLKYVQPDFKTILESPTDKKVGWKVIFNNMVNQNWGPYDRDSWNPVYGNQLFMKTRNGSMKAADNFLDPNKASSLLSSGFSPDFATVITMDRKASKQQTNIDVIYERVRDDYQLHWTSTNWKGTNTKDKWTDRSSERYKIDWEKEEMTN

[2] = target: T1, alpha toxin (alpha-hemolysin); assay: SPR; […] (pH not stated); SPR temperature not stated; […]; conditions: protein: commercial; stem-loop (Mfold)
[3] = target: T1, alpha toxin (alpha-hemolysin); assay: SPR; assay 1; […] (pH not stated); SPR temperature not stated; […]; conditions: protein: commercial; stem-loop (Mfold)
cholera toxin = cholera toxin (UniProt P01555;P01556 19-258;22-124); assay: […] (pH not stated); SPR temperature not stated; […]; conditions: protein: commercial; copies: 1;5; stem-loop (Mfold)
Chain of cholera toxin (P01555 19-258, chain 1 of 2): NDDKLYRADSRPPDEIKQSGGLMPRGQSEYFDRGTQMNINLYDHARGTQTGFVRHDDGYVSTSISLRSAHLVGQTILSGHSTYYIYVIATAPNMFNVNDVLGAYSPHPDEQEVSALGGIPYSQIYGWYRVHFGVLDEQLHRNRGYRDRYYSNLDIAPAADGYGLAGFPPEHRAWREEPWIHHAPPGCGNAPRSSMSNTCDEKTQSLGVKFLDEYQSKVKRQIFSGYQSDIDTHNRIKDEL
Chain of cholera toxin (P01556 22-124, chain 2 of 2): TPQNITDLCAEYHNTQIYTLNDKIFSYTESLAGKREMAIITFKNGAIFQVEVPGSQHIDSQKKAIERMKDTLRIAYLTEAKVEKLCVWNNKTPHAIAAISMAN

toxin B = toxin B (UniProt P18177 2-2366); assay: as above; conditions: protein: commercial; stem-loop (Mfold)
Chain of toxin B (P18177 2-2366): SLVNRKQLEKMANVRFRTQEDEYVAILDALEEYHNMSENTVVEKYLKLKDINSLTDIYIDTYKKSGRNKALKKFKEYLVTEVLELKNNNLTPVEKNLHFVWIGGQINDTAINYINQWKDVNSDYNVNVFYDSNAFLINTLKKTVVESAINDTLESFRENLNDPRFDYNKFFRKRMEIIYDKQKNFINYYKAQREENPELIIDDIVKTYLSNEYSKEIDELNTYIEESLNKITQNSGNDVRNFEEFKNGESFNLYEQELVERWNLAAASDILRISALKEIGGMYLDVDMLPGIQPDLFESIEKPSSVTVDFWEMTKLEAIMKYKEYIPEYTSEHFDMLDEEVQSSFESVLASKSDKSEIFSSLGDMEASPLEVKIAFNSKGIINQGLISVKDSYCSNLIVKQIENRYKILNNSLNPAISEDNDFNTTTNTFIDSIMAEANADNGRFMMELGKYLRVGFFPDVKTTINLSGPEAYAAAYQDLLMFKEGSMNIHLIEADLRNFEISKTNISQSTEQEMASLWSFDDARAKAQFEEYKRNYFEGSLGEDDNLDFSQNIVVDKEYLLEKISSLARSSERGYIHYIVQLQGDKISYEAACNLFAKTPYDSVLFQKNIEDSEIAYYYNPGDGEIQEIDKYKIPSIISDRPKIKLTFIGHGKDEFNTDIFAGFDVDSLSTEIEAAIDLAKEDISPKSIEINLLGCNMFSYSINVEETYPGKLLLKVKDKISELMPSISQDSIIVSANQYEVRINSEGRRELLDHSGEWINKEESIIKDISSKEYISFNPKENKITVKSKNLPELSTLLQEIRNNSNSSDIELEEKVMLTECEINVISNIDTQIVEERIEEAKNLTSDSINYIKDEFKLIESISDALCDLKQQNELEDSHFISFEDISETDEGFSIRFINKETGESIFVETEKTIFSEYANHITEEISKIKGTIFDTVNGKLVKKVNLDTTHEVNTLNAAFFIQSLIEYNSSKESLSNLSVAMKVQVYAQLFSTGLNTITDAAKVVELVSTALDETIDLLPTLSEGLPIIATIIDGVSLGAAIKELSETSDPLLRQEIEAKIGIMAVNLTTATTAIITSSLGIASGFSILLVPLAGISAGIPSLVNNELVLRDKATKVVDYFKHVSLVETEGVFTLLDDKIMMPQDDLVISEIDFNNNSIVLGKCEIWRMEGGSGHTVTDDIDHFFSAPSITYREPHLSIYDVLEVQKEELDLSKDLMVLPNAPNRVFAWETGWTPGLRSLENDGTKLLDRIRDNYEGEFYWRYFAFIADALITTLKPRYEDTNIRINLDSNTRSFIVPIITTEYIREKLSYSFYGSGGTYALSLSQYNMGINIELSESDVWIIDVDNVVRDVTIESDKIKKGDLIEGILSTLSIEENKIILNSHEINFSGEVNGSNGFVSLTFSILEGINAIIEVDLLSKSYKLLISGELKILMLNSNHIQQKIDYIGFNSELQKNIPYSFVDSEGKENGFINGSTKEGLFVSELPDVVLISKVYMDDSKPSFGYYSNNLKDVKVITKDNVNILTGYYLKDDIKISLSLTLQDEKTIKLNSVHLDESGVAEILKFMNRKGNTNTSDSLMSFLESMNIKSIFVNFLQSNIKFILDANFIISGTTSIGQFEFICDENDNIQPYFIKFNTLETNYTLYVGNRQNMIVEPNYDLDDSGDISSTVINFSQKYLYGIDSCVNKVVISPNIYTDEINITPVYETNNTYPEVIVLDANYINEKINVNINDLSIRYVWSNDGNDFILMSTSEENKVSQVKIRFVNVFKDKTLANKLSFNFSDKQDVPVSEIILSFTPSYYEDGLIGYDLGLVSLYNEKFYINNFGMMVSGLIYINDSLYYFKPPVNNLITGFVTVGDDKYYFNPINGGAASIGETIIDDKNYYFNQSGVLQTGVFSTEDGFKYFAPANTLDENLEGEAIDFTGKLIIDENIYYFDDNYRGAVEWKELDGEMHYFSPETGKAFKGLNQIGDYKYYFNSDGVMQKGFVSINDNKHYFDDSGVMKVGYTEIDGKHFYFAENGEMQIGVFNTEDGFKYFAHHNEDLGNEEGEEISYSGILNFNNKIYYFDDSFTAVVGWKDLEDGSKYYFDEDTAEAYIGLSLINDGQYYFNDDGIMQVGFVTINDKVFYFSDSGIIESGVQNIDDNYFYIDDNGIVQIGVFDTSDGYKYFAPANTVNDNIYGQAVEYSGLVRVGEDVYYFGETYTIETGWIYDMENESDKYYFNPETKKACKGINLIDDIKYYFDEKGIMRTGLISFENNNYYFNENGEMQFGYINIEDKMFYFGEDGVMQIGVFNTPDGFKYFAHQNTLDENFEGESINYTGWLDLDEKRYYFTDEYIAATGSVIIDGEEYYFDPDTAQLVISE

[4] = target: T1, alpha toxin (alpha-hemolysin); assay: as above; conditions: protein: commercial; stem-loop (Mfold)
exotoxin A = exotoxin A (UniProt P11439 26-638); assay: fluorescence plate binding; p = 0.004; […] (pH not stated); SPR temperature not stated; […]; conditions: protein: commercial; stem-loop (Mfold)
Chain of exotoxin A (P11439 26-638): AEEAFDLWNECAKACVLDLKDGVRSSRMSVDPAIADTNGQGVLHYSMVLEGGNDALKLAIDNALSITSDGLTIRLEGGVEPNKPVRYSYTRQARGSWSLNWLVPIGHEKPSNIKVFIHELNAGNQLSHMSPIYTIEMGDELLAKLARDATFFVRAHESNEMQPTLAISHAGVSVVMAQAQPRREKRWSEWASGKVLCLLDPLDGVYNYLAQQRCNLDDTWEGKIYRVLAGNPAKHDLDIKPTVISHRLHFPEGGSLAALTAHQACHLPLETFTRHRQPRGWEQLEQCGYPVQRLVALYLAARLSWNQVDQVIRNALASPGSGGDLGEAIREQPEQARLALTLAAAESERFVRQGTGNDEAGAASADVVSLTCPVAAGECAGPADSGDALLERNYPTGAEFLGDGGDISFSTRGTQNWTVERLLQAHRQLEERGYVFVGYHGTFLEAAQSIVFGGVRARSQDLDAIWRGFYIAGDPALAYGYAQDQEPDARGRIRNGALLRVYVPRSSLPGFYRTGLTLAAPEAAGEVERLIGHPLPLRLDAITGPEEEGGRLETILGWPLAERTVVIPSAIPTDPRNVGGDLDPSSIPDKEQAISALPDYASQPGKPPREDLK

| Binder | Kd [1] [nM] | Kd [2] | Kd [3] [nM] | binding signal (cholera toxin) | binding signal (toxin B) | binding signal [4] | binding signal (exotoxin A) |
| --- | --- | --- | --- | --- | --- | --- | --- |
| B1 | 88.7 | 93.7 nM and 90.7 nM | 102 |  |  |  |  |
| B2 |  |  |  | 1.5 fold lower than alpha toxin | 5 fold lower than alpha toxin | 1 relative to alpha toxin | 1.5 fold lower than alpha toxin |
